# US11766480B2, “Multivalent peptoid oligomers, pharmaceutical compositions and methods of using same” (NEW YORK UNIVERSITY, priority 2012, dated 2023)
# “Also recorded” adds a separate entry of the source.
# Key:
# HEK293 cells = test: Cell toxicity assay (CyQUANT cell viability), HEK293; assay type: cell-based, human; conditions: 1 μM, 72 hours
# Procedure: (§1) To evaluate the general cell toxicity of oligomers 6 and 7, a cell viability assay was utilized.
# (§2) HEK293 and PC3 cells were seeded in triplicate on 96-well plates (Corning) in DMEM and HAM'S—F media supplemented with 10% FBS, 1% L-Gln and 1% PS, respectively. HEK293 and PC3 cells were then treated with conjugates (1 μM and 20 μM, respectively) and allowed to incubate at 37° C. for 72 hours. Following treatment, relative cell viability was measured using the CyQUANT reagent according to the manufacturer's instructions. Fluorescence intensity was quantified as described above. All data were processed using GraphPad Prism.
# PC3 cells = test: Cell toxicity assay (CyQUANT cell viability), PC3; assay type: cell-based; conditions: 20 μM, 72 hours
# Procedure: as §1, §2
# LNCaP-abl cells = test: Cell-cycle distribution by FACS / flow cytometry; assay type: cell-based, human; conditions: 1 μM, 48 h
# Procedure: LNCaP-abl cells were grown on 10 cm culture dishes (BD Falcon) to approximately 70% confluence in RPMI media supplemented with 10% charcoal-stripped FBS, 1% L-Gln, and 1% PS. Cells were then treated with conjugate 1 or 2 to a final concentration of 1 μM and allowed to incubate at 37° C. for 48 h. Following treatment, cells were fixed and suspended in 2 mL of 1:3 HBSS:Phosphate-Citrate Buffer (pH 8.0) containing 0.1% Triton X-100. Cells were centrifuged (2,000 rpm for 5 min) and suspended in 1 mL of propidium-iodide solution (1 mg propidium iodine, 10 mg EDTA, 250 μL Igepal, and 2.2 μg μL-1 RNAase in 50 mL of PBS). Cells were then harvested for cell-cycle analysis by filtration (CellTrics, 100 μm) into conical tubes (Falcon) and analyzed by flow cytometry (Becton-Dickinson FACScalibur). All data were analyzed using FlowJo software.
# The inventors analyzed cell-cycle distribution of LNCaP-abl cells treated with either oligomer 6 or 7 utilizing fluorescence-activated cell sorting (FACS) analysis. These studies provide a quantitative assessment of normal and apoptotic nuclei along with cell distribution in the G0/G1, S, and G2/M phases of the cell-cycle.
# AR = biological target: T1, AR (Homo sapiens, UniProt P10275, T878A); test: Chromatin immunoprecipitation of AR at the PSA enhancer in LNCaP-abl cells; assay type: cell-based; conditions: R-1881 10 nM alone, positive control
# T1 construct: endogenous in cells; host or cells: LNCaP-abl
# T1 sequence (P10275 1-920 T878A): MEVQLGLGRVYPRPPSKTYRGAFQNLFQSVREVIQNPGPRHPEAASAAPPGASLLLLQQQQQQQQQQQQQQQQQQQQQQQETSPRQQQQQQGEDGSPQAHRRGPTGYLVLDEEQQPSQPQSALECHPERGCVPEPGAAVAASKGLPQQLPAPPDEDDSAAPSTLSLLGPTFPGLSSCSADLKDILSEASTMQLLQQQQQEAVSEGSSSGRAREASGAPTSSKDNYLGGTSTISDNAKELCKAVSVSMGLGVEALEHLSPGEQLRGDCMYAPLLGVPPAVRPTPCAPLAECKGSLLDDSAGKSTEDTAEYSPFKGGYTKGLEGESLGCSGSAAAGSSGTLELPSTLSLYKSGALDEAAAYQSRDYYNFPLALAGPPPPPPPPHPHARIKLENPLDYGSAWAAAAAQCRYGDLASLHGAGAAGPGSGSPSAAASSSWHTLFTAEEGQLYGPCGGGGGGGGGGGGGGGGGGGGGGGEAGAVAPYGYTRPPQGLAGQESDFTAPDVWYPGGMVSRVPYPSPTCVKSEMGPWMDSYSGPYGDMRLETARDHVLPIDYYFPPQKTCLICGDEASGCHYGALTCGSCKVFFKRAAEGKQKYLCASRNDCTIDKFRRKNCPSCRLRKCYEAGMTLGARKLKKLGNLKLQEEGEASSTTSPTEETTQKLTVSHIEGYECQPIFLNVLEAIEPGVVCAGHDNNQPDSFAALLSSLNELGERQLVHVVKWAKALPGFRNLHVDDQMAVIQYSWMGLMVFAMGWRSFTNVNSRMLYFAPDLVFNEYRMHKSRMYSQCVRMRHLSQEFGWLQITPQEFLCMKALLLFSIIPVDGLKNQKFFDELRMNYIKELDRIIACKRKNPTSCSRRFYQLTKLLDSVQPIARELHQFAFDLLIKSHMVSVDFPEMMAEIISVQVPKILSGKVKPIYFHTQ
# Procedure: Following treatment, proteins were double cross-linked with DSP (Pierce) for 20 min and 1% formalin for 10 min. Cells were lysed, and nuclei were collected, lysed in buffer (1% SDS, 50 mM Tris-HCl (pH 8.0), 10 mM EDTA), and sonicated for 12 min (30 s on, 30 s off) utilizing a Bioruptor sonicator (Diagenode, model XL). Sonicated lysates were precleared for 2 h with Protein A/G agarose beads blocked with salmon sperm DNA (Millipore). […] Control ChIP was concurrently performed with the same quantity of normal mouse and rabbit IgG sera. Immunocomplexes were then washed and cross-linking was reversed. DNA was isolated with a PCR purification kit (Qiagen) according to the manufacturer's instructions, and real-time PCR was performed. Relative enrichment of indicated genomic locus was calculated as a percentage of 4% input normalized to IgG. All data were processed using GraphPad Prism.
smiles,measurement,setting,value
COCCN(CC(N)=O)C(=O)CN(CCOC)C(=O)CN(CCCn1cc([C@]2(O)CCC3C4CCC5=CC(=O)CC[C@]5(C)C4CC[C@@]32C)nn1)C(=O)CN(CCOC)C(=O)CN(CCOC)C(=O)CN(CCOC)C(=O)CN(CCOC)C(=O)CN(CCOC)C(=O)CN(CCOC)C(=O)CN(CCOC)C(=O)CN(CCOC)C(=O)CNCCCn1cc([C@]2(O)CCC3C4CCC5=CC(=O)CC[C@]5(C)C4CC[C@@]32C)nn1 (stereo partly shown) [Oligomer 6],cytotoxic effects in HEK293 cells,HEK293 cells,did not exhibit cytotoxic effects; also recorded: cytotoxicity was not observed
same,cytotoxic effects in AR-deficient PC3 cells,PC3 cells,did not exhibit cytotoxic effects; also recorded: cytotoxicity was not observed
same,apoptotic cell population,LNCaP-abl cells,no increase in the apoptotic cell population
C[C@]1(O)CC[C@H]2[C@@H]3CCC4=CC(=O)CCC4=C3C=C[C@@]21C [Oligomer R-1881],AR recruitment to the PSA enhancer,AR,promoted AR recruitment
COCCN1CC(=O)N(CCCn2cc([C@]3(O)CCC4C5CCC6=CC(=O)CC[C@]6(C)C5CC[C@@]43C)nn2)CC(=O)N(CCOC)CC(=O)N(CCOC)CC(=O)N(CCCn2cc([C@]3(O)CCC4C5CCC6=CC(=O)CC[C@]6(C)C5CC[C@@]43C)nn2)CC(=O)N(CCOC)CC1=O (stereo partly shown) [Oligomer 7],cytotoxic effects in HEK293 cells,HEK293 cells,did not exhibit cytotoxic effects; also recorded: cytotoxicity was not observed
same,cytotoxic effects in AR-deficient PC3 cells,PC3 cells,did not exhibit cytotoxic effects; also recorded: cytotoxicity was not observed
same,apoptotic cell population,LNCaP-abl cells,no increase in the apoptotic cell population
